According to patent publication US20220162322A1:

Key:
[1] = biological target: BDCA-2 (CLEC4C, CD303) on human plasmacytoid dendritic cells (purified pDC or pDC within PBMC) (human) (UniProt Q8WTT0); assay: cell-based or functional assay
[2] = biological target: human BDCA-2-Fc (hIgG1-Fc-hBDCA-2) (human); assay: ELISA on plate-coated human BDCA2-Fc
[3] = biological target: human BDCA-2-Fc (hIgG1-Fc-hBDCA-2) (human); assay: SPR (BIAcore T200), huBDCA2-Fc immobilised on CM5 chip, mAb injected

BDCA-2 (CLEC4C, CD303) on human plasmacytoid dendritic cells (purified pDC or pDC within PBMC) (human), sequence (Q8WTT0 whole entry): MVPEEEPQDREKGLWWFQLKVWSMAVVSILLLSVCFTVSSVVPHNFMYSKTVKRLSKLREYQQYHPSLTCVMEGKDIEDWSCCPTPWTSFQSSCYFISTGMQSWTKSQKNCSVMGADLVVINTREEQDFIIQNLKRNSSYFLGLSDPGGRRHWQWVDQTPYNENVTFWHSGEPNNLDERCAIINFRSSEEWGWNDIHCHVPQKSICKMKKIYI
human BDCA-2-Fc (hIgG1-Fc-hBDCA-2) (human), sequence (chain, as listed by the source limits assumed): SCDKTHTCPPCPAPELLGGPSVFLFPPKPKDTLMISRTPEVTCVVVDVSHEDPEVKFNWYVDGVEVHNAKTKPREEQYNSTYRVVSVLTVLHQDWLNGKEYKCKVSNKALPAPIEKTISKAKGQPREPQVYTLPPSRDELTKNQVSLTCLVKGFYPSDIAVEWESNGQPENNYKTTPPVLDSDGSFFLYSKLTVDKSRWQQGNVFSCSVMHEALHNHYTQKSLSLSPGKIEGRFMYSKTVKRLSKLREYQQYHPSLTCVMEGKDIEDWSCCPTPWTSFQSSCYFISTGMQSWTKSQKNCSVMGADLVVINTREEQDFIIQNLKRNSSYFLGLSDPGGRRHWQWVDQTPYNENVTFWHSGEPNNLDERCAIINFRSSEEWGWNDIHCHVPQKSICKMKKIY

- IC50, nM; inhibition of IFNα from ODN stimulated healthy donor PBMC [1]: 1.52 nM
- IC50, ng/ml; inhibition of IFNα from ODN stimulated healthy donor PBMC [1]: 228 ng/mL
- IC90, nM; inhibition of IFNα from ODN stimulated healthy donor PBMC [1]: 13.7 nM
- IC90, ng/ml; inhibition of IFNα from ODN stimulated healthy donor PBMC [1]: 2060 ng/mL
- EC50 [2]: 0.27 nM
- Kd [3]: 2.3 nM
Substance: anti-BDCA-2 mAb AC144 (Miltenyi Biotec, cat. no. 130-090-690) (antibody)
